Results as given in patent US20260137822A1 (ABDERA THERAPEUTICS, published 2026).
Substitutions are numbered along the chain they refer to.

T1: FcγRIIa (R167) (biotinylated, Acro Biosystems) (UniProt P12318 36-218, biotinylated)
T1 sequence (looked up): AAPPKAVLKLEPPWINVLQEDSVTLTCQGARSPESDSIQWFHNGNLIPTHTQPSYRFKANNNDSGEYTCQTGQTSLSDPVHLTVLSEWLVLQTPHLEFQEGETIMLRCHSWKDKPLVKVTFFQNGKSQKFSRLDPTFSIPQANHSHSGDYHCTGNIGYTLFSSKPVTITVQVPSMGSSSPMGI

T2: FcγRIIb/c (biotinylated, Acro Biosystems) (UniProt P31994 46-217, biotinylated)
T2 sequence (looked up): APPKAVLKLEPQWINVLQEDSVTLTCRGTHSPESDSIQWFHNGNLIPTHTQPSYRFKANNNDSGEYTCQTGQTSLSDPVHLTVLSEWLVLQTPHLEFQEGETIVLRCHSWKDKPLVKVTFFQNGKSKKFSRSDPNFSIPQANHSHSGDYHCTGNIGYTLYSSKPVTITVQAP

T3: FcγRIIa (H167) (biotinylated, Acro Biosystems) (UniProt P12318 36-218, biotinylated)
T3 sequence (looked up): T1 sequence (looked up) with R132H

T4: human DLL3 (antigen of Example 30) (human, UniProt Q9NYJ7 27-492, limits assumed)
T4 construct: also called hDLL3
T4 sequence (looked up): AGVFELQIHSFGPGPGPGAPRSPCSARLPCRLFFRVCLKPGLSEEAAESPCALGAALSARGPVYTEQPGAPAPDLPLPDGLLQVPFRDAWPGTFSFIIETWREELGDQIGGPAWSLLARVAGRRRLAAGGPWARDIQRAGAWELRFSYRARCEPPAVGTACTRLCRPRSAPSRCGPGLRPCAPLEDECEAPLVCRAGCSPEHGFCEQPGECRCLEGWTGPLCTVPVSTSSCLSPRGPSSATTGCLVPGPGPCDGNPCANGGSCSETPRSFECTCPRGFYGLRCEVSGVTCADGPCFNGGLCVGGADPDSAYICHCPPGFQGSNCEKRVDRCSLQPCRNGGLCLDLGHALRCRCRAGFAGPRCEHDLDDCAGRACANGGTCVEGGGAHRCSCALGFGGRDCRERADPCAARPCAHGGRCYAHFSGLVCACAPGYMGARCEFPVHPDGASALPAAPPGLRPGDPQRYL

B1: H133 (Fc fusion)
chain (part 1 of 2): QVQLQESGGGSVQAGGSLKLTCAASGYIFNSCGMGWYRQSPGRERELVSRISGDGDTWHKESVKGRFTISQDNVKKTLYLQMNSLKPEDTAVYFCAVCYNLETYWGQGTQVTVSS
chain (part 2 of 2): APEAEGAPSVFLFPPKPKDTLMISRTPEVTCVVVDVSHEDPEVKFNWYVDGVEVHNAKTKPREEQYNSTYRVVSVLTVLHQDWLNGKEYKCKVSNKALPSSIEKTISKAKGQPREPQVYTLPPSREEMTKNQVSLTCLVKGFYPSDIAVEWESNGQPENNYKTTPPVLDSDGSFFLYSKLTVDKSRWQQGNVFSCSVMHEALHNHYTQKSLSLSPG
notes: not shown: hinge; copies: 2 + 2
B2: D134 (Fc fusion)
chain (part 1 of 2): EVQLVESGGGEVQPGGSLRLSCAASGSIFSINAMGWYRQAPGKQRELVAGFTGDTNTIYAESVKGRFTISRDNAKNTVYLQMSSLRAEDTAVYYCAADVQLFSRDYEFYWGQGTLVTVKP
chain (part 2 of 2): B1 chain (part 2 of 2)
notes: as for B1
B3: H135 (Fc fusion)
chain (part 1 of 2): B1 chain (part 1 of 2)
chain (part 2 of 2): B1 chain (part 2 of 2) with H80A
notes: as for B1
B4: D136 (Fc fusion)
chain (part 1 of 2): B2 chain (part 1 of 2)
chain (part 2 of 2): B1 chain (part 2 of 2) with H80A
notes: as for B1
B5: D138 (Fc fusion)
chain (part 1 of 2): B2 chain (part 1 of 2)
chain (part 2 of 2): B1 chain (part 2 of 2) with H205Q
notes: as for B1
B6: H137 (Fc fusion)
chain (part 1 of 2): B1 chain (part 1 of 2)
chain (part 2 of 2): B1 chain (part 2 of 2) with H205Q
notes: as for B1
B7: Anti-FOLR1x2; Anti-DLL3x2; (GGS)3 tetramer (bispecific antibody)
chain (part 1 of 2): QVQLVESGGGLVQPGGSLRLSCAASGFTVSNSVMAWYRQTPGNEREFVAIINSIGITNYADSVKGRFTISRDNSKNTLYLQMNSLRAEDTAVYVCNRNFDRIYWGQGTLVTVSSGGSGGSGGSEVQLVESGGGEVQPGGSLRLSCAASGSIFSINAMGWYRQAPGKQRELVAGFTGDTNTIYAESVKGRFTISRDNAKNTVYLQMSSLRAEDTAVYYCAADVQLFSRDYEFYWGQGTLVTVKP
chain (part 2 of 2): not shown
notes: As m61 with the (GGS)3 linker; also called bispecific tetramer GGSx3; not shown: hinge
B8: Anti-FOLR1x2; Anti-DLL3x2; (GGS)4 tetramer (bispecific antibody)
chain (part 1 of 2): QVQLVESGGGLVQPGGSLRLSCAASGFTVSNSVMAWYRQTPGNEREFVAIINSIGITNYADSVKGRFTISRDNSKNTLYLQMNSLRAEDTAVYVCNRNFDRIYWGQGTLVTVSSGGSGGSGGSGGSEVQLVESGGGEVQPGGSLRLSCAASGSIFSINAMGWYRQAPGKQRELVAGFTGDTNTIYAESVKGRFTISRDNAKNTVYLQMSSLRAEDTAVYYCAADVQLFSRDYEFYWGQGTLVTVKP
chain (part 2 of 2): not shown
notes: As m61 with the (GGS)4 linker; also called bispecific tetramer GGSx4; not shown: hinge
B9: Anti-FOLR1x2; Anti-DLL3x2; (GGGGS)3 tetramer (bispecific antibody)
chain (part 1 of 2): QVQLVESGGGLVQPGGSLRLSCAASGFTVSNSVMAWYRQTPGNEREFVAIINSIGITNYADSVKGRFTISRDNSKNTLYLQMNSLRAEDTAVYVCNRNFDRIYWGQGTLVTVSSGGGGSGGGGSGGGGSEVQLVESGGGEVQPGGSLRLSCAASGSIFSINAMGWYRQAPGKQRELVAGFTGDTNTIYAESVKGRFTISRDNAKNTVYLQMSSLRAEDTAVYYCAADVQLFSRDYEFYWGQGTLVTVKP
chain (part 2 of 2): not shown
notes: entry chosen by mutation status; also called bispecific tetramer GGGGSx3; not shown: hinge
B10: bispecific anti-h/mFOLR1/h/mDLL3 (GGS)3 tetramer, p-SCN-Bn-DOTA conjugate (bispecific antibody)
chain (part 1 of 2): B7 chain (part 1 of 2)
chain (part 2 of 2): not shown
modifications: conjugated with p-SCN-Bn-DOTA
notes: Chelator conjugate of m63; not shown: hinge

Target: T1, FcγRIIa (R167) (biotinylated, Acro …)
Assay: BLI (Octet), biotinylated FcγR on SA sensor, steady state analysis

Kd	Binder
2300 nM	B1
460 nM	B2
1200 nM	B3
570 nM	B4
520 nM	B5
1200 nM	B6

Target: T2, FcγRIIb/c (biotinylated, Acro …)
Assay: as above

Kd	Binder
1100 nM	B2
2200 nM	B4
770 nM	B5

Target: T5, FOLR1 on cells (OVCAR3, OV-90) (UniProt P15328 25-234)
T5 construct: whole, on cells; also called FOLR1-positive OVCAR3 cells; FOLR1 expressing OV-90 cells
Assay: flow cytometry on FOLR1 expressing OV-90 cells, Geomeans RL1-H against Conc (nM); linker not printed on the sheet, taken as the (GGS)3 parent of the conjugate [bottom panel]

T5 sequence (P15328 25-234): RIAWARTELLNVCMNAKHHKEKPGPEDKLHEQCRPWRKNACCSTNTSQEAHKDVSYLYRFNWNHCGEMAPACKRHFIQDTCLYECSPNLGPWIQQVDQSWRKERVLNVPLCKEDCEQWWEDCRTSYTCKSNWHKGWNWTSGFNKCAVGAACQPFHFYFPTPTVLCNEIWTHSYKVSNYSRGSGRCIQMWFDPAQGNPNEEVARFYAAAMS

EC50 (read off the curve)	Binder
~3 nM	B7

Target: T5, FOLR1 on cells (OVCAR3, OV-90)
Assay: binding to FOLR1-positive OVCAR3 cells

binding result	Binder
binds	B8
binds	B9

Target: FcγRI (biotinylated, Acro Biosystems) (UniProt P12314 16-288, biotinylated)
Assay: BLI, biotinylated FcγR on SA sensor

Chain of FcγRI (biotinylated, Acro Biosystems) (P12314 16-288 limits assumed): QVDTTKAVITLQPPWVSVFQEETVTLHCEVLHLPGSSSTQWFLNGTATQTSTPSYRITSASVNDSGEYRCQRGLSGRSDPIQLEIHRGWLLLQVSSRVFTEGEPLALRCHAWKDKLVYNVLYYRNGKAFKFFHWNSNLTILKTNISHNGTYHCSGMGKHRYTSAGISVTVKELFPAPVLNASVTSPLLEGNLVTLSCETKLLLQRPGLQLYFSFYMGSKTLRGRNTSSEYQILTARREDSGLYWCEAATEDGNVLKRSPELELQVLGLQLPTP

binding result	Binder
no binding	B2
no binding	B3
no binding	B4
no binding	B6

Target: T3, FcγRIIa (H167) (biotinylated, Acro …)
Assay: BLI, biotinylated FcγR on SA sensor

binding result	Binder
no binding	B1
no binding	B3
no binding	B6

Target: FcγRIIIa (V176) (biotinylated, Acro Biosystems) (UniProt P08637 17-208, biotinylated)
Assay: BLI, biotinylated FcγR on SA sensor

Chain of FcγRIIIa (V176) (biotinylated, Acro Biosystems) (P08637 17-208 F176V limits assumed): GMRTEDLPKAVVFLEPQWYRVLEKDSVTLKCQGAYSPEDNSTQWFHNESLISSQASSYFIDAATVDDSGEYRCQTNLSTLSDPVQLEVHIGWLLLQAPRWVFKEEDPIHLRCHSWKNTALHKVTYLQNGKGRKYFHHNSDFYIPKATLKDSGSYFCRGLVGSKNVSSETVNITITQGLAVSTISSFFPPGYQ

binding result	Binder
no binding	B1
no binding	B2
no binding	B3
no binding	B4
no binding	B5
no binding	B6

Target: FcγRIIIa (F176) (biotinylated, Acro Biosystems) (UniProt P08637 17-208, biotinylated)
Assay: BLI, biotinylated FcγR on SA sensor

Chain of FcγRIIIa (F176) (biotinylated, Acro Biosystems) (P08637 17-208 limits assumed): as the sequence (P08637 17-208 F176V limits assumed) above, with V160F counted along it

binding result	Binder
no binding	B1
no binding	B2
no binding	B3
no binding	B4
no binding	B5
no binding	B6

Target: T4, human DLL3 (antigen of Example 30)
Assay: BLI (Octet), tetramer captured on AHC sensor, antigen as analyte

binding result	Binder
binds	B7
binds	B8
binds	B9

Target: T6, murine FOLR1 (antigen of the Octet assay) (murine, UniProt P35846 25-232, limits assumed)
T6 construct: also called mFOLR1
Assay: as above

T6 sequence (P35846 25-232 limits assumed): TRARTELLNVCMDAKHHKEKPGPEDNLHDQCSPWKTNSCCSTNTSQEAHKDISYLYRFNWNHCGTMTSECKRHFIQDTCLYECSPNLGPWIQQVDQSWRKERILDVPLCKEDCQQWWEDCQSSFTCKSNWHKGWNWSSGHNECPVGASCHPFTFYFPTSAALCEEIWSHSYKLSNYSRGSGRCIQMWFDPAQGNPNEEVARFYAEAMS

binding result	Binder
binds	B7
binds	B8
binds	B9

Target: T7, human FOLR1 (antigen of the Octet assay) (human, UniProt P15328 25-234, limits assumed)
T7 construct: also called hFOLR1
Assay: as above

T7 sequence (P15328 25-234 limits assumed): as the sequence (P15328 25-234) above

binding result	Binder
binds	B8
binds	B9

Target: biotinylated hFcRn (Sino Biological, Cat #: CT071-H27H-B) (human, UniProt P55899 24-297; P61769 21-119, biotinylated)
Assay: BLI (Octet), biotinylated hFcRn on SA sensor, pH 6.0, 2:1 heterogeneous ligand model

Kd	Binder
2.1 nM	B1
1.9 nM	B2

Target: T5, FOLR1 on cells (OVCAR3, OV-90)
Assay: flow cytometry on FOLR1 expressing OV-90 cells, Geomeans RL1-H against Conc (nM) [bottom panel]

EC50 (read off the curve)	Binder
~3 nM	B10
